This series has as its system K4 kissing-loop RNA reporter. The series is described as follows: apparent KD of K4 kissing-loop reporter; higher = weaker reporter binding. Conditions: Eterna round: R107. How it is done:
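RNA-MaP round R107: designed RNA switches with theophylline, tryptophan, arginine or FMN aptamers are transcribed on-chip within common flanks. They are titrated with a labelled K4 kissing-loop RNA reporter in RNA-MaP buffer (100 mM Tris pH 7.5, 80 mM KCl, 4 mM MgCl2), without ligand or with the indicated ligand. Median apparent KD per design.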

[1] abbreviates: input ligand: theophylline 20 uM.
The mark [2] stands for this setting: input ligand: tryptophan 2.4 mM.
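Note: bound reporter read as fluorescence of individual clusters on recovered sequencing chips by microscopy, with normalized cluster intensities fitted with a binding model.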

For “AGAGAGGUGUUUUUUUGAUGUGAGUAAUGGCGAGGACCGGUACGGCCGCCACUCGGGUGAUGUUAGUGAUGUUGAUGUAGUGAUG [p'pmullin]”, the “apparent KD of K4 kissing-loop reporter” value runs as follows: (input ligand: FMN 200 uM) 79.4 nM; (input ligand: arginine 13.2 mM) 66.6 nM; (input ligand: none) 71.1 nM; under setting [1], 131 nM; under setting [2], 77 nM.
The like results for “AAAGAUCUUCUAGAAACUAGAAGAUCAAGAGAGGAUAUCCGAAUUCGGAGAAGGCUCACUAAGUGAUGUUUGGAGGGAAUCCCAA [AK1 SS FMN A]” were, in that order, 1250 nM, 805 nM, 1670 nM, 1290 nM and 1360 nM.
On to “GGGAGAAGUGCGGCCGCCACUGAGAAAGAAGAAGAAUAUAGUGAUGUUAUAUAGGAAAGGAAGAACAGGACCGGGCAUAAGAGGG [SSTryptB.A]”, for which the “apparent KD of K4 kissing-loop reporter” value worked out at 104 nM (input ligand: FMN 200 uM); 148 nM (input ligand: arginine 13.2 mM); 126 nM (input ligand: none); 131 nM under setting [1]; 99.1 nM under setting [2].
In the same order, the values of “GGCGGCUGCGCGCAAGCGCAGCCGGCCGAUACCAGCGCGACGGCGCGCCCUUGGCAGCGGCGCCGAGUGAUGUUCGGCCUGCCGU [#2 Same State - Theophylline A Attempt #22 (HarryS)]” are 113 nM, 98.1 nM, 129 nM, 149 nM and 141 nM.
The like results for “UGGAGUUGACGAAAAGUCAACUCCAGAGAAGGAGCGGACGAAAGUCCAGGUAGGUCGCUCACUACCAGUGAUGUUGGUACUUGAA” were, in that order, 220 nM, 335 nM, 255 nM, 449 nM and 218 nM.
Turning to “CAAGGACGGCCGUAGGCAUACCGUCGAUUCAAGGAUAUCAAGAGAAUGAGAAGGUGAAGUUUAUACAGUGAUGUUGCUAUAGAGA [theeternabot_sameState_KL_FMN_A_6]”, the “apparent KD of K4 kissing-loop reporter” value (input ligand: FMN 200 uM) was found to be 133 nM; the “apparent KD of K4 kissing-loop reporter” value (input ligand: arginine 13.2 mM) came to 122 nM; the “apparent KD of K4 kissing-loop reporter” value (input ligand: none) came to 168 nM; the “apparent KD of K4 kissing-loop reporter” value under setting [1] was determined as 195 nM; the “apparent KD of K4 kissing-loop reporter” value under setting [2] worked out at 152 nM.
The like results for “CUAUGGAAACAUAGUGAGCGGGAAACCGAUACCAGUAUGGAAACAUACCCUUGGCAGCGGAAUGCUCAAACGGAGUGAUGUUCCG [Theophylline A K4 22]” were, in that order, 265 nM, 216 nM, 270 nM, 235 nM and 240 nM.
In the same order, the values of “UGACUGGAUGGAAGGAGCGCUAAACUCCUAGUGAUGUUAGGGAUACGAGACAAAGUCUUGAAGCAGGUAGGUCGCCAUCUAGUCU [FiskerMod 10 - Jieux - Same State - Arginine B]” are 170 nM, 124 nM, 144 nM, 144 nM and 138 nM.
In the same order, the values of “CAUGGAGUGAUGCUCCAUGAUCGGGCUUGGCAGGAUAUGGGAUUUUCCAGAAGGGUCGAUCCCAGCGAGUGAUGUUCGCUGGUCU [Exclusion FMN A GF 26]” are 106 nM, 121 nM, 126 nM, 151 nM and 116 nM.
For the sequence “UUUUAUUAAUUCUUCUAGUGAUGUUAGAUACGAGGACCGGUACGGCCGCCACUCGCUUAUUGGUUUAUAAAUUUUAUAUUAUUUA [JR_SSTryptoA_Sub016]”, the “apparent KD of K4 kissing-loop reporter” value by setting is: (input ligand: FMN 200 uM) 292 nM; (input ligand: arginine 13.2 mM) 296 nM; (input ligand: none) 286 nM; under setting [1], 294 nM; under setting [2], 249 nM.
On to “UUAUUAUAUUGUAAUGAUAUAGAAACCGAAGGAGCGACAUAAAAGUCAGGUAGGUCGCGGUGUACUCAGUGAUGUUGAGAGUAUU [JR_SSArginiA_Sub013]”, for which the “apparent KD of K4 kissing-loop reporter” value (input ligand: FMN 200 uM) is 141 nM; the “apparent KD of K4 kissing-loop reporter” value (input ligand: arginine 13.2 mM) is 265 nM; the “apparent KD of K4 kissing-loop reporter” value (input ligand: none) stood at 172 nM; the “apparent KD of K4 kissing-loop reporter” value under setting [1] was 271 nM; the “apparent KD of K4 kissing-loop reporter” value under setting [2] was 100 nM.
The like results for “CGCGCGGGUUUGAGAGGGUUCGCGCGAAGUGAGGAUAUUUAGGGAGAAAGAAGGCACUAUAAAAUAUAGUGAUGUUAUAUAAGGG [SSFMNA.H]” were, in that order, 699 nM, 93.9 nM, 1110 nM, 371 nM and 342 nM.
For the sequence “GCCGUAGAUUGAAGGAGCGGGCCGUAGUGAUGUUACGCCAAGUUGUCUUUUAUUGAUGUGGCCCAGGUAGGUCGCAAUCUACGGC”, the “apparent KD of K4 kissing-loop reporter” value is, setting by setting: (input ligand: FMN 200 uM) 300 nM; (input ligand: arginine 13.2 mM) 287 nM; (input ligand: none) 311 nM; under setting [1], 217 nM; under setting [2], 273 nM.
For “GAUUCUAGCGAAAGUGAUGUUUUCGAGGAUACCAGUGCCACUUGACACCCUUGGCAGCCUACCCGUCAUCACAAGUGGCGUUAAA [theeternabot_exclusion_KL_Theo_A_28]”, the “apparent KD of K4 kissing-loop reporter” value runs as follows: (input ligand: FMN 200 uM) 136 nM; (input ligand: arginine 13.2 mM) 114 nM; (input ligand: none) 129 nM; under setting [1], 138 nM; under setting [2], 118 nM.
In the same order, the values of “UAACUGCAGUGAUGUUGCAGAUGUCCUGACUAGGAUAUCAGGAAACUGAGAAGGAGUCCCUUCUAAACAUCACAGAAGGAGGACA [[K1]-[K2]-[F1]'-[F1]-[F2]-[F2]'-[K]'-[F]''_Design2]” are 491 nM, 415 nM, 434 nM, 508 nM and 442 nM.
On to “AGACUACCACACUGUCAAUAGACAGUGAACUCGGAUAUGCUGAUAAGCAGAAGGAGUGAUGUUCCGAGGUAGUCAAUAAAAUAAU [FmnAX 13 C32+G66]”, for which the “apparent KD of K4 kissing-loop reporter” value was found to be 263 nM (input ligand: FMN 200 uM); 316 nM (input ligand: arginine 13.2 mM); 568 nM (input ligand: none); 448 nM under setting [1]; 521 nM under setting [2].
The like results for “GUUACGCAUGGAAGGAGCGCUCUCAUAUUUAAUAACACAGUGAUGUUGUGAAUUUAUAUAAAGCAGGUAGGUCGCCAUGUGUAAC [Ex Arginine B K4 6]” were, in that order, 336 nM, 281 nM, 326 nM, 276 nM and 258 nM.
The like results for “GCGAAAAGCAAAACGAGUGAUGUUCGAAAACGAGGACCGGUACGGCCGCCACUCGAAAACGUCUGCGUGGGAAACUAUGUAGAUG [SS Tryptophan A - 1]” were, in that order, 511 nM, 569 nM, 698 nM, 590 nM and 302 nM.
Regarding “GCCAUCUACUAAGGAUAUUAAGUCAAUAUUUGUGGUGCCAUCUGUCGUUCAGGGCAGUGAUGUUGCUAAGAAGGUAGUCUGUCGG [theeternabot_exclusion_KL_FMN_B_39]”, the “apparent KD of K4 kissing-loop reporter” value was 757 nM (input ligand: FMN 200 uM); 441 nM (input ligand: arginine 13.2 mM); 636 nM (input ligand: none); 593 nM under setting [1]; 407 nM under setting [2].
The like results for “AAGUGUGUGGCGGCCGCCACUAGAAUCCAGUGAUGUUGGAGAUAUCACGUAAGUGAUAUCCACCAUAGGACCGGGCCAUAUAGAA [Same State - Tryptophan B (Freestyle 13)]” were, in that order, 1300 nM, 758 nM, 559 nM, 428 nM and 483 nM.
As for “AAGCGUAAAAUGGCGGACAUACUGCUCCCACGAGGACCGGUACGGCCGCCACUCGAAUGCGGCAGUGAUGUUGCCGCCUUAGCGU [KL-XTryp-A19]”, the “apparent KD of K4 kissing-loop reporter” value is, setting by setting: (input ligand: FMN 200 uM) 84.6 nM; (input ligand: arginine 13.2 mM) 77.5 nM; (input ligand: none) 79.1 nM; under setting [1], 75.2 nM; under setting [2], 76.1 nM.
